The source of these data is patent publication US20100144645A1, “COMPOSITIONS AND METHODS FOR ENHANCING […] POTENCY OF […]-COMPOUNDS, A[…] ADVERSE SIDE EFFECTS, AND […] ABUSE” (SHIRE LLC, priority 2006, published 2010).

Residues, ends and D or L forms follow the SMILES beside them. *: point of attachment. X1 = COc1ccc2c3c1OC1C(O*)=CCC4[C@@H](C2)N(C)CC[C@]314

A short description of series [1]: Oral bioavailability of oxycodone conjugates (plasma oxycodone plus oxymorphone). Conditions: rats; for AUC % (Oral Bioavailability): Table G.
A short description of series [2]: Intranasal bioavailability of hydrocodone conjugates. Conditions: rats, relative to hydrocodone.
Series [3] can be described thus: stability 90 C., 20 min (V, BP, TW, BS) of hydrocodone conjugates. Conditions: for stability 90 C., 20 min BP: BP (abbreviation not defined); for stability 90 C., 20 min BS: BS (abbreviation not defined); for stability 90 C., 20 min TW: TW (abbreviation not defined); for stability 90 C., 20 min V: V (abbreviation not defined).
Series [4] in a line: Oral bioavailability of hydrocodone conjugates (plasma hydrocodone plus hydromorphone). Conditions: for bioavailabiltty (% HC) oral AUC / bioavailabiltty (% HC) oral Cmax: rats, relative to hydrocodone; for Oral:IN Index AUC: ratio of oral to IN AUC (% HC); for Oral:IN Index Cmax: ratio of oral to IN Cmax (% HC).
The mark [5] stands for this setting: n = 4 animals, analysis by LC-MS, OXY = 100.

For the compound `CC[C@H](C)[C@H](NC(=O)[C@H](CCC(=O)O)NC(=O)[C@@H](N)CCC(=O)O)C(=O)OC1=CCC2(O)[C@H]3Cc4ccc(OC)c5c4[C@@]2(CCN3C)C1O5` (stereo partly drawn) [Glu-Glu-Ile-OC], the “Oral (% AUC)” value in series [1] (setting [5]) is reported as 179 % AUC.
Still for that read-out and setting: the value for `COc1ccc2c3c1OC1C(OC(=O)[C@H](CC(C)C)NC(=O)[C@H](CCC(=O)O)NC(=O)[C@@H](N)CCC(=O)O)=CCC4(O)[C@@H](C2)N(C)CC[C@]314` (stereo partly drawn) [Glu-Glu-Leu-OC] was 80 % AUC; that for `COc1ccc2c3c1OC1C(OC(=O)[C@H](Cc4ccccc4)NC(=O)[C@H](CCC(=O)O)NC(=O)[C@@H](N)CCC(=O)O)=CCC4(O)[C@@H](C2)N(C)CC[C@]314` (stereo partly drawn) [Glu-Glu-Phe-OC] was 49 % AUC; that for `COc1ccc2c3c1OC1C(OC(=O)[C@@H]4CCCN4C(=O)[C@H](CCC(=O)O)NC(=O)[C@@H](N)CCC(=O)O)=CCC4(O)[C@@H](C2)N(C)CC[C@]314` (stereo partly drawn) [Glu-Glu-Pro-OC] was 71 % AUC.
For `COc1ccc2c3c1OC1C(OC(=O)[C@@H](NC(=O)[C@H](CCC(=O)O)NC(=O)[C@@H](N)CCC(=O)O)C(C)C)=CCC4(O)[C@@H](C2)N(C)CC[C@]314` (stereo partly drawn) [Glu-Glu-Val-OC], in series [1] (setting [5]), the “Oral (% AUC)” value was 55 % AUC.
As to `CC[C@H](C)[C@H](NC(=O)CNC(=O)CN)C(=O)OC1=CCC2(O)[C@H]3Cc4ccc(OC)c5c4[C@@]2(CCN3C)C1O5` (stereo partly drawn) [Gly-Gly-Ile-OC], the “Oral (% AUC)” value in series [1] (n = 4, LC-MS, Dosed at 40% higher levels than calculated) is 224 % AUC.
`COc1ccc2c3c1OC1C(OC(=O)[C@H](Cc4ccccc4)NC(=O)CNC(=O)CN)=CCC4(O)[C@@H](C2)N(C)CC[C@]314` (stereo partly drawn) [Gly-Gly-Phe-OC]: the “Oral (% AUC)” value in series [1] (setting [5]) came out at 163 % AUC.
With `COc1ccc2c3c1OC1C(OC(=O)[C@@H](NC(=O)CNC(=O)CN)C(C)C)=CCC4(O)[C@@H](C2)N(C)CC[C@]314` (stereo partly drawn) [Gly-Gly-Val-OC], the “Oral (% AUC)” value in series [1] (setting [5]) is 123 % AUC.
As for `CC[C@H](C)[C@H](N)C(=O)N[C@H](C(=O)N[C@H](C(=O)OC1=CCC2(O)[C@H]3Cc4ccc(OC)c5c4[C@@]2(CCN3C)C1O5)[C@@H](C)CC)[C@@H](C)CC` (stereo partly drawn) [Ile-Ile-Ile-OC], the “Oral (% AUC)” value in series [1] (setting [5]) was 83 % AUC.
The same measure, in the same setting: next, `COc1ccc2c3c1OC1C(OC(=O)[C@@H](NC(=O)[C@H](CC(C)C)NC(=O)[C@@H](N)CC(C)C)C(C)C)=CCC4(O)[C@@H](C2)N(C)CC[C@]314` (stereo partly drawn) [Leu-Leu-Val-OC]: 81 % AUC; `CC[C@H](C)[C@H](NC(=O)[C@H](CCCCN)NC(=O)[C@@H](N)CCCCN)C(=O)OC1=CCC2(O)[C@H]3Cc4ccc(OC)c5c4[C@@]2(CCN3C)C1O5` (stereo partly drawn) [Lys-Lys-Ile-OC]: 74 % AUC.
Same read-out and setting: next, `COc1ccc2c3c1OC1C(OC(=O)[C@H](CC(C)C)NC(=O)[C@H](CCCCN)NC(=O)[C@@H](N)CCCCN)=CCC4(O)[C@@H](C2)N(C)CC[C@]314` (stereo partly drawn) [Lys-Lys-Leu-OC]: 46 % AUC; `COc1ccc2c3c1OC1C(OC(=O)[C@H](Cc4ccccc4)NC(=O)[C@H](CCCCN)NC(=O)[C@@H](N)CCCCN)=CCC4(O)[C@@H](C2)N(C)CC[C@]314` (stereo partly drawn) [Lys-Lys-Phe-OC]: 37 % AUC; `COc1ccc2c3c1OC1C(OC(=O)[C@@H](NC(=O)[C@H](CCCCN)NC(=O)[C@@H](N)CCCCN)C(C)C)=CCC4(O)[C@@H](C2)N(C)CC[C@]314` (stereo partly drawn) [Lys-Lys-Val-OC]: 108 % AUC.
As for `CC[C@H](C)[C@H](NC(=O)[C@H](Cc1ccccc1)NC(=O)[C@@H](N)Cc1ccccc1)C(=O)OC1=CCC2(O)[C@H]3Cc4ccc(OC)c5c4[C@@]2(CCN3C)C1O5` (stereo partly drawn) [Phe-Phe-Ile-OC], the “Oral (% AUC)” value in series [1] (setting [5]) is recorded as 59 % AUC.
On the same count and under the same terms, the value for `COc1ccc2c3c1OC1C(OC(=O)[C@@H](NC(=O)[C@H](Cc4ccccc4)NC(=O)[C@@H](N)Cc4ccccc4)C(C)C)=CCC4(O)[C@@H](C2)N(C)CC[C@]314` (stereo partly drawn) [Phe-Phe-Val-OC] was 32 % AUC.
`CC[C@H](C)[C@H](NC(=O)[C@H](CC(C)C)NC(=O)[C@@H]1CCCN1)C(=O)OC1=CCC2[C@H]3Cc4ccc(OC)c5c4[C@@]2(CCN3C)C1O5` (stereo partly drawn) [Pro-Leu-Ile-HC]: in series [2], the “bioavailabiltty (% HC) IN AUC” value is on record as 87 % HC and the “bioavailabiltty (% HC) IN Cmax” value came to 101 % HC. Also, in series [3], the “stability 90 C., 20 min BP” value worked out at 100; the “stability 90 C., 20 min BS” value was 100; the “stability 90 C., 20 min TW” value was found to be 100; the “stability 90 C., 20 min V” value stood at 0. In series [4], the “bioavailabiltty (% HC) oral AUC” value worked out at 141 % HC and the “bioavailabiltty (% HC) oral Cmax” value is recorded as 172 % HC.
`CC[C@H](C)[C@H](NC(=O)[C@@H]1CCCN1C(=O)[C@@H]1CCCN1)C(=O)OC1=CCC2(O)[C@H]3Cc4ccc(OC)c5c4[C@@]2(CCN3C)C1O5` (stereo partly drawn) [Pro-Pro-Ile-OC]: the “AUC % (Oral Bioavailability)” value in series [1] is reported as 85%. In series [1] (setting [5]), the “Oral (% AUC)” value was 85 % AUC.
As to `COc1ccc2c3c1OC1C(OC(=O)[C@H](CC(C)C)NC(=O)[C@@H]4CCCN4C(=O)[C@@H]4CCCN4)=CCC4[C@@H](C2)N(C)CC[C@]314` (stereo partly drawn) [Pro-Pro-Leu-HC], in series [2], the “bioavailabiltty (% HC) IN AUC” value is 46 % HC and the “bioavailabiltty (% HC) IN Cmax” value was 48 % HC. Moreover, in series [3], the “stability 90 C., 20 min BP” value worked out at 100; the “stability 90 C., 20 min BS” value amounted to 100; the “stability 90 C., 20 min TW” value worked out at 100; the “stability 90 C., 20 min V” value worked out at 2. In addition, in series [4], the “bioavailabiltty (% HC) oral AUC” value is recorded as 94 % HC, the “bioavailabiltty (% HC) oral Cmax” value came to 108 % HC, the “Oral:IN Index AUC” value is on record as 2.04 and the “Oral:IN Index Cmax” value is recorded as 2.25.
With `COc1ccc2c3c1OC1C(OC(=O)[C@@H](NC(=O)[C@@H]4CCCN4C(=O)[C@@H]4CCCN4)C(C)C)=CCC4(O)[C@@H](C2)N(C)CC[C@]314` (stereo partly drawn) [Pro-Pro-Val-OC], the “AUC % (Oral Bioavailability)” value in series [1] came to 152%. Further, the “Oral (% AUC)” value in series [1] (setting [5]) was found to be 152 % AUC.
With `CC[C@H](C)[C@H](NC(=O)[C@H](Cc1ccccc1)NC(=O)[C@H](Cc1ccccc1)NC(=O)[C@H](Cc1ccc(O)cc1)NC(=O)[C@@H](N)Cc1ccc(O)cc1)C(=O)OC1=CCC2[C@H]3Cc4ccc(OC)c5c4[C@@]2(CCN3C)C1O5` (stereo partly shown) [Tyr2-Phe2-Ile-HC] (H-YYFFI-X1), in series [2], the “bioavailabiltty (% HC) IN AUC” value was found to be 26 % HC and the “bioavailabiltty (% HC) IN Cmax” value amounted to 34 % HC. In addition, in series [3], the “stability 90 C., 20 min BP” value is reported as 5; the “stability 90 C., 20 min BS” value was 50; the “stability 90 C., 20 min TW” value is 5; the “stability 90 C., 20 min V” value came out at 0. In series [4], the “bioavailabiltty (% HC) oral AUC” value came out at 113 % HC, the “bioavailabiltty (% HC) oral Cmax” value came out at 63 % HC, the “Oral:IN Index AUC” value is 4.35 and the “Oral:IN Index Cmax” value is recorded as 1.85.
On to `CC[C@H](C)[C@H](NC(=O)[C@H](Cc1ccc(O)cc1)NC(=O)[C@@H](N)Cc1ccc(O)cc1)C(=O)OC1=CCC2[C@H]3Cc4ccc(OC)c5c4[C@@]2(CCN3C)C1O5` (stereo partly drawn) [Tyr-Tyr-Ile-HC], for which, in series [2], the “bioavailabiltty (% HC) IN AUC” value is reported as 20 % HC and the “bioavailabiltty (% HC) IN Cmax” value turned out to be 34 % HC. In addition, in series [3], the “stability 90 C., 20 min BP” value worked out at 66; the “stability 90 C., 20 min BS” value was 100; the “stability 90 C., 20 min TW” value is recorded as 23; the “stability 90 C., 20 min V” value is given as 0. Also, in series [4], the “bioavailabiltty (% HC) oral AUC” value came to 145 % HC, the “bioavailabiltty (% HC) oral Cmax” value turned out to be 234 % HC, the “Oral:IN Index AUC” value was 7.25 and the “Oral:IN Index Cmax” value was found to be 6.88.
With `CC[C@H](C)[C@H](NC(=O)[C@H](Cc1ccc(O)cc1)NC(=O)[C@@H](N)Cc1ccc(O)cc1)C(=O)OC1=CCC2(O)[C@H]3Cc4ccc(OC)c5c4[C@@]2(CCN3C)C1O5` (stereo partly drawn) [Tyr-Tyr-Ile-OC], the “Oral (% AUC)” value in series [1] (setting [5]) is given as 85 % AUC.
For the compound `COc1ccc2c3c1OC1C(OC(=O)[C@H](Cc4ccccc4)NC(=O)[C@H](Cc4ccc(O)cc4)NC(=O)[C@@H](N)Cc4ccc(O)cc4)=CCC4(O)[C@@H](C2)N(C)CC[C@]314` (stereo partly drawn) [Tyr-Tyr-Phe-OC], in series [1] (setting [5]), the “Oral (% AUC)” value is 73 % AUC.
For `COc1ccc2c3c1OC1C(OC(=O)[C@@H]4CCCN4C(=O)[C@H](Cc4ccc(O)cc4)NC(=O)[C@@H](N)Cc4ccc(O)cc4)=CCC4(O)[C@@H](C2)N(C)CC[C@]314` (stereo partly drawn) [Tyr-Tyr-Pro-OC], the “Oral (% AUC)” value in series [1] (setting [5]) amounted to 59 % AUC.
`COc1ccc2c3c1OC1C(OC(=O)[C@@H](NC(=O)[C@H](Cc4ccc(O)cc4)NC(=O)[C@@H](N)Cc4ccc(O)cc4)C(C)C)=CCC4(O)[C@@H](C2)N(C)CC[C@]314` (stereo partly drawn) [Tyr-Tyr-Val-OC]: in series [1], the “AUC % (Oral Bioavailability)” value was 124%. Besides, in series [1] (setting [5]), the “Oral (% AUC)” value is reported as 124 % AUC.
For the compound `COc1ccc2c3c1OC1C(OC(=O)[C@H](Cc4ccccc4)NC(=O)[C@@H](NC(=O)[C@@H](N)C(C)C)C(C)C)=CCC4(O)[C@@H](C2)N(C)CC[C@]314` (stereo partly drawn) [Val-Val-Phe-OC], in series [1] (setting [5]), the “Oral (% AUC)” value was found to be 120 % AUC.
